In publication doi:10.1101/2020.12.15.422910:

Biological target: OsBOR3_(Δ1-642) (Oryza sativa)
Assay: cryo-EM structure

stoichiometry N: 2
Substance: OsBOR3_(Δ1-642) (domain or fragment)
